What was measured:
[1] = substrate: O=C(O)[C@H]1O[C@@H](Oc2ccc3nc(C4=N[C@@H](C(=O)O)CS4)sc3c2)[C@H](O)[C@@H](O)[C@@H]1O; assay: Beta-glucuronidase (GUS) assay; type: biochemical, human; conditions: other: 50 mM MES, pH 6.3
Protocol: The source of the human enzyme was Sigma-Aldrich. GUS was incubated with the substrate in 50 mM MES, pH 6.3, for 15 minutes.

[2] = substrate: NCCCOc1ccc2nc(C3=N[C@@H](C(=O)O)CS3)sc2c1; assay: Two-step bioluminogenic MAO B substrate assay; type: biochemical, human
[3] = substrate: CNCCCOc1ccc2nc(C3=N[C@@H](C(=O)O)CS3)ccc2c1; assay: Two-step bioluminogenic MAO B substrate assay; type: biochemical, human; conditions: other: fit of Tables 23-24
[4] = substrate: CNCCCOc1ccc2c(C)cc(=O)oc2c1; assay: Fluorogenic MAO B substrate assay; type: biochemical, human; conditions: other: fit of Table 31
Protocol: (§1) The fluorescent signal was then measured (excitation/emission=355/460 nm) on a Fluoroskan Ascent plate fluorometer.
(§2) This 90 μl contained 35 μl 200 mM Tricine pH 8.3, 35 μl 200 mM Tricine pH 8.7 (or water), 10 μl 200 mM MgSO4, and 10 μl of each substrate dilution.

[5] = substrate: CNCCCOc1ccc2nc(C3=N[C@@H](C(=O)O)CS3)ccc2c1; assay: Two-step luminescent FMO 3 assay; type: biochemical, human; conditions: other: fit of Table 33
[6] = substrate: NCCCOc1ccc2nc(C3=N[C@@H](C(=O)O)CS3)sc2c1; assay: purified protein, by the assay type; conditions: other: fit of Tables 23-24
[7] = substrate: CNCCCOc1ccc2nc(C3=N[C@@H](C(=O)O)CS3)ccc2c1; assay: purified protein, by the assay type
[8] = substrate: CNCCCOc1ccc2c(C)cc(=O)oc2c1; assay: Fluorogenic MAO A substrate assay; type: biochemical, human; conditions: other: fit of Table 31
Protocol: as §1, §2

B1: beta-glucuronidase (GUS) (Homo sapiens) (protein)
chain: LQGGMLYPQESPSRECKELDGLWSFRADFSDNRRRGFEEQWYRRPLWESGPTVDMPVPSSFNDISQDWRLRHFVGWVWYEREVILPERWTQDLRTRVVLRIGSAHSYAIVWVNGVDTLEHEGGYLPFEADISNLVQVGPLPSRLRITIAINNTLTPTTLPPGTIQYLTDTSKYPKGYFVQNTYFDFFNYAGLQRSVLLYTTPTTYIDDITVTTSVEQDSGLVNYQISVKGSNLFKLEVRLLDAENKVVANGTGTQGQLKVPGVSLWWPYLMHERPAYLYSLEVQLTAQTSLGPVSDFYTLPVGIRTVAVTKSQFLINGKPFYFHGVNKHEDADIRGKGFDWPLLVKDFNLLRWLGANAFRTSHYPYAEEVMQMCDRYGIVVIDECPGVGLALPQFFNNVSLHHHMQVMEEVVRRDKNHPAVVMWSVANEPASHLESAGYYLKMVIAHTKSLDPSRPVTFVSNSNYAADKGAPYVDVICLNSYYSWYHDYGHLELIQLQLATQFENWYKKYQKPIIQSEYGAETIAGFHQDPPLMFTEEYQKSLLEQYHLGLDQKRRKYVVGELIWNFADFMTEQSPTRVLGNKKGIFTRQRQPKSAAFLLRERYWKIANETRYPHSVAKSQCLENSLFT
notes: purchased Sigma-Aldrich
**Q.** How did the Km [1] turn out when B1 was run?
**A.** 180 ± 30 µM

B2: human recombinant monoamine oxidase B (MAO B) (Homo sapiens) (protein)
chain: MSNKCDVVVVGGGISGMAAAKLLHDSGLNVVVLEARDRVGGRTYTLRNQKVKYVDLGGSYVGPTQNRILRLAKELGLETYKVNEVERLIHHVKGKSYPFRGPFPPVWNPITYLDHNNFWRTMDDMGREIPSDAPWKAPLAEEWDNMTMKELLDKLCWTESAKQLATLFVNLCVTAETHEVSALWFLWYVKQCGGTTRIISTTNGGQERKFVGGSGQVSERIMDLLGDRVKLERPVIYIDQTRENVLVETLNHEMYEAKYVISAIPPTLGMKIHFNPPLPMMRNQMITRVPLGSVIKCIVYYKEPFWRKKDYCGTMIIDGEEAPVAYTLDDTKPEGNYAAIMGFILAHKARKLARLTKEERLKKLCELYAKVLGSLEALEPVHYEEKNWCEEQYSGGCYTTYFPPGILTQYGRVLRQPVDRIYFAGTETATHWSGYMEGAVEAGERAAREILHAMGKIPEDEIWQSEPESVDVPAQPITTTFLERHLPSVPGLLRLIGLTTIFSATALGFLAHKRGLLVRV
notes: purchased Sigma Chemical Company M-7441; host or cells: baculovirus infected insect cells (microsomes)
**Q.** How did the Km ([2]; other: fit of Table 21) turn out when B2 was run?
**A.** 24 ± 1 µM

**Q.** What about the Km ([2]; other: fit of Tables 23-24) of the same protein?
**A.** 1880 µM

**Q.** And the Km [3]?
**A.** 650 µM

**Q.** And the Km [4]?
**A.** 16 ± 1 µM

B3: human recombinant flavin-containing monooxygenase 3 (FMO 3) (Homo sapiens) (protein)
chain: MGKKVAIIGAGVSGLASIRSCLEEGLEPTCFEKSNDIGGLWKFSDHAEEGRASIYKSVFSNSSKEMMCFPDFPFPDDFPNFMHNSKIQEYIIAFAKEKNLLKYIQFKTFVSSVNKHPDFATTGQWDVTTERDGKKESAVFDAVMVCSGHHVYPNLPKESFPGLNHFKGKCFHSRDYKEPGVFNGKRVLVVGLGNSGCDIATELSRTAEQVMISSRSGSWVMSRVWDNGYPWDMLLVTRFGTFLKNNLPTAISDWLYVKQMNARFKHENYGLMPLNGVLRKEPVFNDELPASILCGIVSVKPNVKEFTETSAIFEDGTIFEGIDCVIFATGYSFAYPFLDESIIKSRNNEIILFKGVFPPLLEKSTIAVIGFVQSLGAAIPTVDLQSRWAAQVIKGTCTLPSMEDMMNDINEKMEKKRKWFGKSETIQTDYIVYMDELSSFIGAKPNIPWLFLTDPKLAMEVYFGPCSPYQFRLVGPGQWPGARNAILTQWDRSLKPMQTRVVGRLQKPCFFFHWLKLFAIPILLIAVFLVLT
notes: purchased Sigma Chemical Company F-5053; host or cells: baculovirus infected insect cells (microsomes)
**Q.** B3 was tested. Which Km [5] did it give?
**A.** 200 ± 20 µM

B4: human recombinant monoamine oxidase A (MAO A) (Homo sapiens) (protein)
chain: MENQEKASIAGHMFDVVVIGGGISGLSAAKLLTEYGVSVLVLEARDRVGGRTYTIRNEHVDYVDVGGAYVGPTQNRILRLSKELGIETYKVNVSERLVQYVKGKTYPFRGAFPPVWNPIAYLDYNNLWRTIDNMGKEIPTDAPWEAQHADKWDKMTMKELIDKICWTKTARRFAYLFVNINVTSEPHEVSALWFLWYVKQCGGTTRIFSVTNGGQERKFVGGSGQVSERIMDLLGDQVKLNHPVTHVDQSSDNIIIETLNHEHYECKYVINAIPPTLTAKIHFRPELPAERNQLIQRLPMGAVIKCMMYYKEAFWKKKDYCGCMIIEDEDAPISITLDDTKPDGSLPAIMGFILARKADRLAKLHKEIRKKKICELYAKVLGSQEALHPVHYEEKNWCEEQYSGGCYTAYFPPGIMTQYGRVIRQPVGRIFFAGTETATKWSGYMEGAVEAGERAAREVLNGLGKVTEKDIWVQEPESKDVPAVEITHTFWERNLPSVSGLLKIIGFSTSVTALGFVLYKYKLLPRS
notes: purchased Sigma Chemical Company M-7316; host or cells: baculovirus infected insect cells (microsomes)
**Q.** Which Km [6] does the source give for B4 here?
**A.** 1320 µM

**Q.** What about the Km ([7]; other: fit of Table 22) of the same protein?
**A.** 1560 ± 130 µM

**Q.** What about the Km ([7]; other: fit of Tables 23-24) of the same protein?
**A.** 1700 µM

**Q.** What about the Km [8] of the same protein?
**A.** 21 ± 1 µM
